Our source for the EC50 (read off the curve) and Kd values is patent US20180111972A1.

Assay [1] deals with human PDGFR on BJ-5ta human fibroblasts (human) (UniProt P09619). Briefly: flow cytometry titration of the soluble FLAG-tagged protein on BJ-5ta cells, anti-FLAG detection. For orientation: A flow cytometer gives signals particle by particle.
Assay [2] concerns the target mouse PDGFR on NIH/3T3 mouse fibroblasts (mouse) (UniProt P05622). The experiment in a line: flow cytometry on cells, soluble ligand titrated, anti-FLAG-PE.
Assay [3] addresses human PDGFR on BJ-5ta human fibroblasts (human) (UniProt P09619). Described as above.
For assay [4] the target is unchanged. The experiment in a line: flow cytometry on BJ-5ta cells, soluble ligand titrated 5 h at 4 C, anti-FLAG-PE.
Assay [5] deals with mouse PDGFR on NIH/3T3 mouse fibroblasts (mouse) (UniProt P05622). The experiment in a line: flow cytometry on NIH/3T3 cells, soluble ligand titrated 5 h at 4 C, anti-FLAG-PE.

Chain of scPDGF, single-chain version of wild-type PDGF-BB, soluble, FLAG and hexahistidine tags (ligand) (chain, part): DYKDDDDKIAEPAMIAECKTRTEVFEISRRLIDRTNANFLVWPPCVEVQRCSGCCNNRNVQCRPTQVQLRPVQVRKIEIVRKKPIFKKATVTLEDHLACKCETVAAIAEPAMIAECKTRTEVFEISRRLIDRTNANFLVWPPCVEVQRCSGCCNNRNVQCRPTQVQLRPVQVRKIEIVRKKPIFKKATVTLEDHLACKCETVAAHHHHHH

Usually EC50 (read off the curve) stands for the concentration needed to bring the measured effect to its halfway point. What is called Kd is the free concentration of one partner at which half of the binding sites on the other are occupied at equilibrium, for simple one-to-one binding. Low readings indicate higher affinity, high ones lower affinity. Take “scPDGF, single-chain version of wild-type PDGF-BB, soluble, FLAG and hexahistidine tags (ligand)”: the EC50 (read off the curve) in assay [1] was 1 pM. Further, the dissociation constant Kd in assay [2] was determined as 2.5 pM; in assay [3], 1.5 pM; in assay [4], 1.5 pM; in assay [5] it was 2.7 pM.
